From PMC5969255

Target: MnSOD-3[Q142H], site-directed mutant of the manganese superoxide dismutase SOD-3 of C. elegans (C. elegans) (UniProt P41977)
Test: crystal structure

stoichiometry N: 4
Substance: MnSOD-3[Q142H], site-directed mutant of the manganese superoxide dismutase SOD-3 of C. elegans (from UniProt P41977 25-218) (enzyme)
